B1: D41A/D42A mutant PCNA protein from Saccharomyces cerevisiae (natural protein)
chain: MLEAKFEEASLFKRIIDGFKDCVQLVNFQCKEDGIIAQAVAASRVLLVSLEIGVEAFQEYRCDHPVTLGMDLTSLSKILRCGNNTDTLTLIADNTPDSIILLFEDTKKDRIAEYSLKLMDIDADFLKIEELQYDSTLSLPSSEFSKIVRDLSQLSDSINIMITKETIKFVADGDIGSGSVIIKPFVDMEHPETSIKLEMDQPVDLTFGAKYLLDIIKGSSLSDRVGIRLSSEAPALFQFDLKSGFLQFFLAPKFNDEE
notes: PCNA, Saccharomyces cerevisiae, with D41A and D42A; also called D41A/D42A PCNA; encoded by the pol30-6 allele; source: E. coli, overexpressed, purified as described previously [35]
B2: R61A/D63A mutant PCNA protein from Saccharomyces cerevisiae (natural protein)
chain: MLEAKFEEASLFKRIIDGFKDCVQLVNFQCKEDGIIAQAVDDSRVLLVSLEIGVEAFQEYACAHPVTLGMDLTSLSKILRCGNNTDTLTLIADNTPDSIILLFEDTKKDRIAEYSLKLMDIDADFLKIEELQYDSTLSLPSSEFSKIVRDLSQLSDSINIMITKETIKFVADGDIGSGSVIIKPFVDMEHPETSIKLEMDQPVDLTFGAKYLLDIIKGSSLSDRVGIRLSSEAPALFQFDLKSGFLQFFLAPKFNDEE
notes: PCNA, Saccharomyces cerevisiae, with R61A and D63A; also called R61A/D63A PCNA; encoded by the pol30-8 allele; source: E. coli, overexpressed, purified as described previously [35]
B3: L126A/I128A mutant PCNA protein from Saccharomyces cerevisiae (natural protein)
chain: MLEAKFEEASLFKRIIDGFKDCVQLVNFQCKEDGIIAQAVDDSRVLLVSLEIGVEAFQEYRCDHPVTLGMDLTSLSKILRCGNNTDTLTLIADNTPDSIILLFEDTKKDRIAEYSLKLMDIDADFAKAEELQYDSTLSLPSSEFSKIVRDLSQLSDSINIMITKETIKFVADGDIGSGSVIIKPFVDMEHPETSIKLEMDQPVDLTFGAKYLLDIIKGSSLSDRVGIRLSSEAPALFQFDLKSGFLQFFLAPKFNDEE
notes: PCNA, Saccharomyces cerevisiae, with L126A and I128A; also called L126A/I128A PCNA; encoded by the pol30-79 allele; source: E. coli, overexpressed, purified as described previously [35]

Target: the molecule itself
Assay: native gel or EMSA; proteins at 0.1, 0.5, 1.0 mg/ml in 10 mM Tris-Cl pH 7.6, 150 mM NaCl, 2.5% Ficoll-400, 10 mM EDTA, 5 min; 4-20% gradient nondenaturing Tris-Glycine gel at 4°C; Coomassie blue; self-association (trimer)

Stoichiometry N, 3:
B1, B2, B3
